Measurements from the supplement of paper PMC7877785.
± gives the uncertainty stated by the source.

Experiment: self-splicing fitness, log relative to wild type (ln ratio); higher = more splicing; Tetrahymena group I intron in knt gene, E. coli kanamycin selection, DiMSum; sequences stand for … in CUCUCU…GGAGGGAAAAGUUAUCAGGCAUGCACCUGGUAGCUAGUCUUUAAACCAAUAGAUUGCAUCGGUUUAAAAGGCAAGACCGUCAAAUUGCGGGAAAGGGGUCAACAGCCGUUCAGUACCAAGUCUCAGGGGAAACUUUGAGAUGGCCUUGCAAAGGGUAUGGUAAUAAGCUGACGGACAUGGUCCUAACCACGCAGCCAAGUCCUAAGUCAACAGAUCUUCUGUUGAUAUGGAUGCAGUUCACAGACUAAAUGUCGGUCGGGGAAGAUGUAUUCUUCUCAUAAGAUAUAGUCGGACCUCUCCUUAAUGGGAGCUAGCGGAUGAAGUGAUGCAACACUGGAGCCGCUGGGAACUAAUUUGUAUGCGAAAGUAUAUUGAUUAGUUUUGGAGUACUCGUGGUCG
Outline: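 Library with all eight P1ex-region intron nucleotides randomised, intron inside the knt kanamycin-resistance gene on pET-22b(+), in E. coli BL21(DE3). Cells grew overnight at 37°C or 30°C on LB agar with or without 25 μg/mL kanamycin (plus 100 μg/mL carbenicillin, 50 μM IPTG, 0.2% rhamnose), in six replicate transformations. Pooled colonies were amplicon-sequenced on Illumina HiSeq 2500. DiMSum fitness is the error-weighted combination of wild-type-normalised replicate fold changes, kanamycin versus none.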

CUGCAGCAAUAUUACGUGUU
self-splicing fitness (ln) (30 °C): -4.86 ± 0.31
self-splicing fitness (ln) (37 °C): -2.28 ± 0.19

CUGGAGCAAUAUUACGAAUU
self-splicing fitness (ln) (37 °C): -1.27 ± 0.29

CUGGAGCAAUAUUACGACGA
self-splicing fitness (ln) (30 °C): -1.9 ± 0.29
self-splicing fitness (ln) (37 °C): -1.7 ± 0.33

CUGGAGCAAUAUUACGAGGU
self-splicing fitness (ln) (30 °C): -3.48 ± 0.23
self-splicing fitness (ln) (37 °C): -2.11 ± 0.17

CUGGAGCAAUAUUACGAUGC
self-splicing fitness (ln) (37 °C): -1.84 ± 0.4

CUGGAGCAAUAUUACGAUGG
self-splicing fitness (ln) (30 °C): -3.66 ± 0.26
self-splicing fitness (ln) (37 °C): -1.47 ± 0.22

CUGGAGCAAUAUUACGCAAA
self-splicing fitness (ln) (30 °C): -3.87 ± 0.42

CUGGAGCAAUAUUACGCCGU
self-splicing fitness (ln) (30 °C): -2.44 ± 0.4
self-splicing fitness (ln) (37 °C): -1.06 ± 0.38

CUGGAGCAAUAUUACGCUUC
self-splicing fitness (ln) (30 °C): -2.1 ± 0.28

CUGGAGCAAUAUUACGGAGA
self-splicing fitness (ln) (30 °C): -3.11 ± 0.42

CUGGAGCAAUAUUACGGCGG
self-splicing fitness (ln) (30 °C): -0.649 ± 0.16
self-splicing fitness (ln) (37 °C): -1.44 ± 0.26

CUGGAGCAAUAUUACGGGCC
self-splicing fitness (ln) (37 °C): -2.19 ± 0.31

CUGGAGCAAUAUUACGGUAC
self-splicing fitness (ln) (30 °C): -2.41 ± 0.18
self-splicing fitness (ln) (37 °C): -2.84 ± 0.27

CUGGAGCAAUAUUACGUAGA
self-splicing fitness (ln) (37 °C): -2.67 ± 0.2

CUGGAGCAAUAUUACGUAGG
self-splicing fitness (ln) (30 °C): -1.78 ± 0.071
self-splicing fitness (ln) (37 °C): -1.4 ± 0.095

CUGGAGCAAUAUUACGUCGC
self-splicing fitness (ln) (30 °C): -2.03 ± 0.46
self-splicing fitness (ln) (37 °C): -2.57 ± 0.48

CUGGAGCAAUAUUACGUCUG
self-splicing fitness (ln) (30 °C): 0.206 ± 0.068
self-splicing fitness (ln) (37 °C): 0.0818 ± 0.099

CUGGAGCAAUAUUACGUGAC
self-splicing fitness (ln) (30 °C): -1.85 ± 0.18
self-splicing fitness (ln) (37 °C): -0.992 ± 0.24

CUGGAGCAAUAUUACGUGUC
self-splicing fitness (ln) (30 °C): -3.17 ± 0.2
self-splicing fitness (ln) (37 °C): -3.18 ± 0.27

CUGUAGCAAUAUUACGAACU
self-splicing fitness (ln) (30 °C): -2.78 ± 0.26

CUGUAGCAAUAUUACGACUU
self-splicing fitness (ln) (30 °C): -2.12 ± 0.21
self-splicing fitness (ln) (37 °C): -1.36 ± 0.33

CUGUAGCAAUAUUACGAGGU
self-splicing fitness (ln) (30 °C): -4.23 ± 0.28
self-splicing fitness (ln) (37 °C): -2.42 ± 0.21

CUGUAGCAAUAUUACGCCUG
self-splicing fitness (ln) (30 °C): -0.759 ± 0.14
self-splicing fitness (ln) (37 °C): 0.521 ± 0.16

CUGUAGCAAUAUUACGCGGC
self-splicing fitness (ln) (30 °C): -2.51 ± 0.47
self-splicing fitness (ln) (37 °C): -2.14 ± 0.3

CUGUAGCAAUAUUACGCUAC
self-splicing fitness (ln) (30 °C): -3.21 ± 0.35
self-splicing fitness (ln) (37 °C): -1.39 ± 0.32

CUGUAGCAAUAUUACGCUUU
self-splicing fitness (ln) (30 °C): -3.83 ± 0.17
self-splicing fitness (ln) (37 °C): -3.19 ± 0.21

CUGUAGCAAUAUUACGGCGU
self-splicing fitness (ln) (30 °C): -3.75 ± 0.33
self-splicing fitness (ln) (37 °C): -2.2 ± 0.33

CUGUAGCAAUAUUACGGGAA
self-splicing fitness (ln) (30 °C): -1.49 ± 0.29
self-splicing fitness (ln) (37 °C): -2.12 ± 0.35

CUGUAGCAAUAUUACGUACG
self-splicing fitness (ln) (30 °C): -1.43 ± 0.21
self-splicing fitness (ln) (37 °C): -1.05 ± 0.19

CUGUAGCAAUAUUACGUACU
self-splicing fitness (ln) (30 °C): -2.61 ± 0.11
self-splicing fitness (ln) (37 °C): -1.3 ± 0.13

CUGUAGCAAUAUUACGUCAA
self-splicing fitness (ln) (30 °C): -2.56 ± 0.19
self-splicing fitness (ln) (37 °C): -1.85 ± 0.19

CUGUAGCAAUAUUACGUCCG
self-splicing fitness (ln) (30 °C): -0.133 ± 0.08
self-splicing fitness (ln) (37 °C): 0.0507 ± 0.11

CUGUAGCAAUAUUACGUCGA
self-splicing fitness (ln) (30 °C): -2.71 ± 0.35
self-splicing fitness (ln) (37 °C): -1.06 ± 0.35

CUGUAGCAAUAUUACGUUAA
self-splicing fitness (ln) (30 °C): -3.31 ± 0.33
self-splicing fitness (ln) (37 °C): -1.49 ± 0.23

CUGUAGCAAUAUUACGUUGA
self-splicing fitness (ln) (30 °C): -2.93 ± 0.2
self-splicing fitness (ln) (37 °C): -2.43 ± 0.2

CUUAAGCAAUAUUACGAAAU
self-splicing fitness (ln) (30 °C): -3.41 ± 0.24
self-splicing fitness (ln) (37 °C): -2.48 ± 0.26

CUUAAGCAAUAUUACGACAA
self-splicing fitness (ln) (30 °C): -2.75 ± 0.41
self-splicing fitness (ln) (37 °C): -2.98 ± 0.34

CUUAAGCAAUAUUACGACGG
self-splicing fitness (ln) (30 °C): -0.508 ± 0.1
self-splicing fitness (ln) (37 °C): -0.291 ± 0.13

CUUAAGCAAUAUUACGAGGU
self-splicing fitness (ln) (30 °C): -1.3 ± 0.14
self-splicing fitness (ln) (37 °C): -3.09 ± 0.26

CUUAAGCAAUAUUACGAUAC
self-splicing fitness (ln) (30 °C): -2.53 ± 0.36
self-splicing fitness (ln) (37 °C): -2.33 ± 0.5

CUUAAGCAAUAUUACGCAUA
self-splicing fitness (ln) (30 °C): -3.2 ± 0.32
